The DeepSol protein solubility set

Assay: soluble on expression in E. coli; label from the status in PepcDB or PDB records

Sequence | soluble on expression in E. coli
ATLDVRGGYRSGSHAYETRLKVSEGWQNGWWASMESNTWNTIHDNKKENAALNDVQVEVNYAIKLDDQWTVRPGMLTHFSSNGTRYGPYVKLSWDATKDLNFGIRYRYDWKAYRQQDLSGDMSRDNVHRWDGYVTYHINSDFTFAWQTTLYSKQNDYRYANHKKWATENAFVLQYHMTPDITPYIEYDYLDRQGVYNGRDNLSENSYRIGVSFKL | soluble
MVTVVDRVTDRRLRHPEKAHRPDTSVQKKPDWIRVKAPTSQVYKETHGIVRAHKLVTVCEEAGCPNIGECWSQRHASFMILGEICTRACAFCNVATGIPFAVDENEPERVADAVARMELKHVVITSVDRDDLADGGAEHFAKVIYAIRRKAPKTTIEVLTPDFRHKDGALEIVVAAKPDVFNHNLETVPSKYLKVRPGARYFHSIRLLQRVKELDPTIFTKSGIMVGLGEERNEILQLMDDLRSADVDFMTIGQYLQPTRKHHPVIRFVPPEEFESFAKIGKVKGFLHMASNPLTRSSHHAGDDFAILQKARDEKFALQR | not soluble
MGSDKIHHHHHHMIPISLIQETAEGLMDKAAIEIPQDYLDGLQEAARTEDGDLSSFVLKAMLDNYEAAKEDRRAMCGDTGVPRWFVKMGNDASVEGGMVALEAALRRATANATNGVPLRPNRVHPLWRTDHNNNVGIGAPEIEYGFEPEGEWIDLITVHKGGLFGTDYRMLFPSDGLQGIKRFYLDSLMAFGKRGLACQPAIIGIGLGGSKDICMTLGKRASTLRVVGSRNSDPRIAEMEDEFKALGNSIGMGAMGFVGKNMVIDCNIEVGYCHTGGLPMSVHAFCLSSRRAVARIHADGRVEHRTDPDWFTDYQRRETIDWPLAQEAAE | not soluble
MFSPSTTTLFRFVECTEDQHALEILEILNDAIINSTALYDYKPRSKESMAAWFATKRQNNFPIIGAVNEVGQLLGFASWGSFRAFPAYKYTVEHSVYIHKDYRGLGLSKHLMNELIKRAVESEVHVMVGCIDATNVASIQLHQKLGFIHSGTIQQAGFKFGRWLDAAFYQLTLDTPLHPQDD | soluble
GKSDKIIPIAENKEAKAKYDILETYEAGIVLKGSEVKSLREKGTVSFKDSFVRIENGEAWLYNLYIAPYKHATIENHDPLRKRKLLLHKREIMRLYGKVQEKGYTIIPLKLYWKNNKVKVLIALAKGKKLYDRRRELKEKAMKRELEREFKGKIHL | soluble
MGSDKIHHHHHHMAYTVLLVTSVNTYKEQLNHPIMSDVGKLLPTKIKRVESATDEHSLIKLVQDANVSGEKISIAGMQHSQGGQTYYPHGTMLDMKGYNKILEFDPEKKRITVQSGATWNDIQKKVNPYGLAVQVMQSQNIFTVGGSLSVNVHGRDIRHEALIDTVESFRLLMADGTVRNVSREENADLFPYVIGGYGLFGVILDVTLKLTNDELYETHTKMLDYKEYTSYFKEKVKKDENVRMHLARISVAPNSFFREMYVTDYTLAKNQNMREEYSKLKEETIIAAPKFLLGLSRYSDWGKDTFWDIQRSYFERTDGKYETRNNVMRSDSAFMEYENPNRTEVLQEYFVPIDFFTEYIDDLRNVLNEEEFNLLNITVRYVEKNENAVLSYAKDDMFALVLLINQGRSEHEIKKTENVIQKMIDVTLKHNGSYYLPYYSYPSKEQLRRAYPRIEEFLQKKKEADPKERFVNLFYREYTK | not soluble
MDFLQGDRGDYKSALGSLQQVGYGSVIAKIRLAFNATGSVLRKRVLKEEQIEETVAKELEERRRTWDVNNGQFDKFSQWYIEYRKNLWHKDDYLPWLLYENEISCLKLTFDVCERPPRRINYGGRNRYTCEN | not soluble
MAAFNAKYLIDLLKRIRSGEESIDSPDALELLYIPLPLAHELGVINSMDGLDPYDEMEISCKSILKKLDEKKKTEEKHRAKQERQAQKKGAKEQAKKEKAELKKEAKELLKKEKAEERKKESLKRKLSEKSEPAAKKAKASEDQENRGATKKKITPPNRKHTALFKKCMAMRVKNFAY | not soluble
MGSDKIHHHHHHMRGEQSPNGLHYAREHLSCKNYMTDIDTGFKYIKFDTEKCIEEEYTHKNYLLFFLEGDFSVYCNQFCNRTFHSNEMVVLPKSSMIKISATDKSQMLAMAFDIPQSNCDKLLFQGLSSICENIDYDFSPIPMRYPLMPFLETVVHCLRNEMNCTYLHNVIEREFFFLLRGFYNKKEIATLFHPIIGRQLEFRDFVMQNYSKVNNLDELITLSNIGRTSFFIKFKEEFGITAKQWMMKQLKKRILGKVIEPGICVKQLMEVCNFESQAQLYRYFKQHFRCTPKQLIDRYQAKTDNL | not soluble
MKVLILGGGYTGQRLAQLLAAQSIPVLATTRSGQWPLDEPCVTFDAGSTPLLLPDPAALAGVTHVLSTIPPLGDGGDPVLSTLLPTLQYLSLQWCGYLSTTGVYGDTQGAWVDEDSPLQSTNRRSQQRIAIEAQWLASGLPAHIFRLPGIYGPGRSSFDRLRRGDNQRLLKPGHVFCRIHVDDIAAALWASLQQPNPGRIYNVSDDFPCEPALLIEAAAQLMGVELPPPLPVDAVELSPMAASFWSECRRVRNDRLKQELGVQLRYPSYREGLAAIWAAELEHHHHHH | not soluble
MSLERKLEIVKTKTENYTIKVDGVFIHSKYDPLREAETFAIKNIELIKNSRYIVIYGFGLGYHIEAVLRHMNEESMLAVFDADLEVIKEAKKQSLYKKLIKNPRLKCFFDYGDEFLKEFSKSLSLAKNIIIYRPSLKVLPEEFGHMARLLKGYELAKIEIEKHGKLAEYNYDMNLKKTHKKMQDFLSFYSFGCENIVLVSSGPSLDYNIESLKKVRDRVKIFCAGSAAEFLIKNHIIPDMICIIDPQDIVYTQLQSILNKNIPLCFLSSACSRVVSEWSGEKFLFFNDFNAARENNDVVVETGKSVATAILSIAVLKKPKKVIFIGQDLAYLNGKSHHDNYGSSQSSGIKKVRSVDGEYLETNEGFLYFKSWIEQKIMKSKDIEFINCSSGAEIKGTIASKLIDAIKEGHHHHHH | soluble
GPGSMQRGFCRVGTVTVSQAQKRAAELINSSDGFCSNVMRTVQFTPTGVKACDGESMGFSWRANQRALNGFRSTHGGALAILADTFTQIHLGAARPAAEFRSVSFEINYLEAIPENAECTCITRIVGDGESDIHHVEYSFQDERRRKVFSRGTHVLSCTK | soluble
MSLKNVTEKNREIYKQLNDRQEEISRLQRDLIQTKEQVSINSNKILVYESEMEQCKQRYQDLSQQQKDAQKKDIEKLTNEISDLKGKLSSAENANADLENKFNRLKKQAHEKLDASKKQQAALTNELNELKAIKDKLEQDLHFENAKVIDLDTKLKAHELQSEDVSRDHEKDTYRTLMEEIESLKKELQIFKTANSSSDAFEKLKVNMEKEKDRIIDERTKEFEKKLQETLNKSTSSEAEYSKDIETLKKEWLKEYEDETLRRIKEAEENLKKRIRLPSEERIQKIISKRKEELEEEFRKKLKENAGSLTFLDNKGSGEDAEEELWNSPSKGNSERPSAVAGFINQKNLKPQEQLKNVKNDVSFNDSQSMVTNKENNIVDSSAAGNKAIPTFSFGKPFFSSNTSSLQSFQNPFTASQSNINTNAPLRTLNIQPEVAVKAAINFSNVTDLTNNSTDGAKITEIGSTSKRPIESGTSSDPDTKKVKESPANDQASNEEGHHHHHH | soluble
MLSTGLDELVYRSNLIGSDRAVCNWGGGNTSMKTVEKDFRGREIAVMWVKGSGSDLATMGAKNFTGLNLEDIRPLIEREEMSDEEMVEYLGHCMIDRNHPRPSIETLLHAFLPFKHVDHTHPDAIISICCADNGKEIAKNLFGDRFVWVPYVRPGFSLSKLIAEGVQKNPHAELVLMEKHGLVVWGETAKESYDRTISVINEAEAYIRSRINESVIFGGGKLEHHHHHH | not soluble
MGESLDRCIDDINRAVDSMSTLYFKPPGIFHNAILQGASNKASIRKDITRLIKDCNHDEAYLLFKVNPEKQSVSRRDGKEGVFDYVIKRDTDMKRNRRLGRPGEKPIIHVPKEVYLNKDRLDLNNKRRRTATTSGGGLNGFIFDTDLIGSSVISNSSSGTFKALSAVFKDDPQIQRLLYALENGSVLMEEESNNQRRKTIFVEDFPTDLILKVMAEVTDLWPLTEFKQDYDQLYHNYEQLSSKLRFIKKEVLLQDDRLKTMSQYHPSSSHDVAKIIRKEKDEIRRLEMEIANLQE | not soluble
MRIEVTIAKTSPLPAGAIDALAGELSRRISHHFPENLGNVTVRYATANNLSVIGASKEDKERISEILQETWESADDWFINE | not soluble
MKGMRGPGESRDTAMAVEQDIFDAVVMADERFHGEGYQEGYEEGSSLGIVEGKRYGMVHGAKIGSEIGCYRGFALAWKCLLHSGAGEKDSRKMKVVEALIALLQDFPYDDPTYEKLHEDLDRIRGKFRQLCSLLNVQPDFKVTPGGSGLAF | soluble
MAITIQNHELQVTLKALGATMTSITDSQGVEYLWQGDATYWGGQAPILFPICGSVRNDCVIYRPAQAPHFTGIIPRHGFVRHKTFDYDYISDSSVRFTIKSSKEMLINYPYRFSLEITYTLRNKSIAITYIVKNLESEKNMPYAIGAHPGFNCPLFEKEVFSDYYLEFEQFETCTIPESFPDTGLLDLQARHPFLENQKQLSLNHALFEKDAITLDQLRSKTVYLKSRNHAKGIQLDFDDFENLILWTSNNGGPFLALEPWSSLSTSIEESDILEDKQNIVRLNPKQSKQHSIRITILLEHHHHHH | soluble
MSLPHLSLADARNLHLAAQGLLNKPRRRASLEDIPATISRMSLLQIDTINIVARSPYLVLFSRLGNYPAQWLDESLARGELMEYWAHEACFMPRSDFRLIRHRMLAPEKMGWKYKDAWMQEHEAEIAQLIQHIHDKGPVRSADFEHPRKGASGWWEWKPHKRHLEGLFTAGKVMVIERRNFQRVYDLTHRVMPDWDDERDLVSQTEAEIIMLDNSARSLGIFREQWLADYYRLKRPALAAWREARAEQQQIIAVHVEKLGNLWLHADLLPLLERALAGKLTATHSAVLSPFDPVVWDRKRAEQLFDFSYRLECYTPAPKRQYGYFVLPLLHRGQLVGRMDAKMHRQTGILEVISLWLQEGIKPTTMLQKGLRQAITDFASWQQATRVTLGRCPQGLFTDCRTGWEIDPVA | not soluble
MYNITLPVLGTRLKQIREHVGYSQAQLAEQLNCKQNAISNLELGKGGSLKLLFQVLNFYSNYVFIDLIFSEKFYLISNTEEDEAQKANYNSVIIEIIRQSEKNYENAMSNAKKELEANLQKAINLLQP | not soluble
MGSSLSNLNDGTNGLAMGPGLGDIPESCVACVFMYLTPPEICNLAGLNRSFRGAASSDSVWEKKLPENYQDLLDLLPPERYHSLSKKDIFAVLSRPIPFDDDNKEVWIDRVTGRVCMAISARGMSITGIEDRRYWNWIPTEESRFHVVAYLQQIWWFEVDGTVRFHLPPGVYSLSFRIHLGRFTKRLGRRVCHFELTHGWDLKPVRFSLSTSDGQEASCEYYLDDVERNEALGKHKRGYWIEYRVGEFIVNGSEPSTEIQWSMKQIDCTHSKGGLCVDSVFINPIGDVKEHKRKAVLKEA | soluble
MGSSGMGVDANGKPIKRQPTTNNNNKKAGNNSNNQKKGNNQNNKNNKNQNGGNRNQNRQHHQPPMMQMVPPFGPMGPGGPGGPGFMGPPNGNMNFFNGQNRRNGSGKNNGNRNGAPPSGYNGPSANNVGQGAIGNNMNGAQPFAGPEPSMEVPGFGKNSNIHELFGKMIWRKMEQINDAALVDQLQNRIMNLIHDALASQNDKQQQQQQQQHQQGFNQQRGMPFGGPGNQNGPFGNNAGFQRF | not soluble
MGHHHHHHSHMTWKGGGGWMAAVTHGPGITWGSLLPSAVRQGEQKCKNTDVYFSKLGGGGVPPDSFQRADCGGPTVYPTPARESLSFGTPGFPELRGKLILHVSIAVVVFLFGPGRAGEGPSRLQEASRVSWTLLCRPQAALQTPVRWDDFRRSQPGTARPSAWEPVQGAVS | soluble
AKGRAGRSKRTEQDHYETDYTTGGESCDELEEDWIREYPPITSDQQRQLYKRNFDTGLQEYKSLQSVLDEINKELSRLDKELDDYREESEEYMAAADEYNRLKQVKGSADYKSKKNHCKQLKSKLSHIKKMVGDYDRQKT | soluble
